Measured values published in IntAct's records for PubMed 24012335.

B1: Merlin (Homo sapiens), P35240 (parent)
chain: MAGAIASRMSFSSLKRKQPKTFTVRIVTMDAEMEFNCEMKWKGKDLFDLVCRTLGLRETWFFGLQYTIKDTVAWLKMDKKVLDHDVSKEEPVTFHFLAKFYPENAEEELVQEITQHLFFLQVKKQILDEKIYCPPEASVLLASYAVQAKYGDYDPSVHKRGFLAQEELLPKRVINLYQMTPEMWEERITAWYAEHRGRARDEAEMEYLKIAQDLEMYGVNYFAIRNKKGTELLLGVDALGLHIYDPENRLTPKISFPWNEIRNISYSDKEFTIKPLDKKIDVFKFNSSKLRVNKLILQLCIGNHDLFMRRRKADSLEVQQMKAQAREEKARKQMERQRLAREKQMREEAERTRDELERRLLQMKEEATMANEALMRSEETADLLAEKAQITEEEAKLLAQKAAEAEQEMQRIKATAIRTEEEKRLMEQKVLEAEVLALKMAEESERRAKEADQLKQDLQEAREAERRAKQKLLEIATKPTYPPMNPIPAPLPPDIPSFNLIGDSLSFDFKDTDMKRLSMEIEKEKVEYMEKSKHLQEQLNELKTEIEALKLKERETALDILHNENSDRGGSSKHNTIKKLTLQSAKSRVAFFEEL
partner: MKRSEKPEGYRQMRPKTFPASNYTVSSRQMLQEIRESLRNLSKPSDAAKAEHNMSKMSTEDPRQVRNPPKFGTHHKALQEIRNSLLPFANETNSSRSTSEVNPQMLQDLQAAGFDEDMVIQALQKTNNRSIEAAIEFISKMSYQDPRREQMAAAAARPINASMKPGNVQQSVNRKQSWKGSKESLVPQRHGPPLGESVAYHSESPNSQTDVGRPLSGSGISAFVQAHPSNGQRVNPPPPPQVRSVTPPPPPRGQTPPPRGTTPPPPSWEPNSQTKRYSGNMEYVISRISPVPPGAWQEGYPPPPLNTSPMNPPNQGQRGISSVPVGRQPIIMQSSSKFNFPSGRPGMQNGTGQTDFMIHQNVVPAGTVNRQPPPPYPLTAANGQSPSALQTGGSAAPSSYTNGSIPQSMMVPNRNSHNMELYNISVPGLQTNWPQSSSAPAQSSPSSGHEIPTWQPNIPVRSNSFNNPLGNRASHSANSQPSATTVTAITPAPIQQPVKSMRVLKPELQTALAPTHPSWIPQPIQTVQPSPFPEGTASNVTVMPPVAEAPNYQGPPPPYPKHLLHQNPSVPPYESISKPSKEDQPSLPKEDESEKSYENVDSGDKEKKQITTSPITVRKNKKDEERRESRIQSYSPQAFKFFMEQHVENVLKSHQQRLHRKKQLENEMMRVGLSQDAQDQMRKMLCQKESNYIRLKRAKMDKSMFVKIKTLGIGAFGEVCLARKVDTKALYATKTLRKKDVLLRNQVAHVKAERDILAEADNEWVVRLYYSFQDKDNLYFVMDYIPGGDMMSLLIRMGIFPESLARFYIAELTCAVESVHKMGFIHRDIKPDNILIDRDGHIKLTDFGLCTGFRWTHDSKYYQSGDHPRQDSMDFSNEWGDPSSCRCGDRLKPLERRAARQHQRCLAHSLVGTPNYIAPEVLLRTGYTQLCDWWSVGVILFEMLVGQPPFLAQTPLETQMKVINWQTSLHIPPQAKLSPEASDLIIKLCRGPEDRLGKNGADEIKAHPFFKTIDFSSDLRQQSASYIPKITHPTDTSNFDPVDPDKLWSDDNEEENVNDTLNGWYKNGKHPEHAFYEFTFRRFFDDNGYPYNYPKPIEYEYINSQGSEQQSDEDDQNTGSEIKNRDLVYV
B2: Serine/threonine-protein kinase Warts (Drosophila melanogaster (Fruit fly)), Q9VA38 (parent)
chain: MHPAGEKRGGRPNDKYTAEALESIKQDLTRFEVQNNHRNNQNYTPLRYTATNGRNDALTPDYHHAKQPMEPPPSASPAPDVVIPPPPAIVGQPGAGSISVSGVGVGVVGVANGRVPKMMTALMPNKLIRKPSIERDTASSHYLRCSPALDSGAGSSRSDSPHSHHTHQPSSRTVGNPGGNGGFSPSPSGFSEVAPPAPPPRNPTACSAATPPPPVPPTSQAYVKRRSPALNNRPPAIAPPTQRGNSPVITQNGLKNPQQQLTQQLKSLNLYPGGGSGAVVEPPPPYLIQGGAGGAAPPPPPPSYTASMQSRQSPTQSQQSDYRKSPSSGIYSATSAGSPSPITVSLPPAPLAKPQPRVYQARSQQPIIMQSVKSTQVQKPVLQTAVAPQSPSSASASNSPVHVLAAPPSYPQKSAAVVQQQQQAAAAAHQQQHQHQQSKPPTPTTPPLVGLNSKPNCLEPPSYAKSMQAKAATVVQQQQQQQQQQQQVQQQQVQQQQQQQQQQLQALRVLQAQAQRERDQRERDQRERERDQQKLANGNPGRQMLPPPPYQSNNNNNSEIKPPSCNNNNIQISNSNLATTPPIPPAKYNNNSSNTGANSSGGSNGSTGTTASSSTSCKKIKHASPIPERKKISKEKEEERKEFRIRQYSPQAFKFFMEQHIENVIKSYRQRTYRKNQLEKEMHKVGLPDQTQIEMRKMLNQKESNYIRLKRAKMDKSMFVKLKPIGVGAFGEVTLVSKIDTSNHLYAMKTLRKADVLKRNQVAHVKAERDILAEADNNWVVKLYYSFQDKDNLYFVMDYIPGGDLMSLLIKLGIFEEELARFYIAEVTCAVDSVHKMGFIHRDIKPDNILIDRDGHIKLTDFGLCTGFRWTHNSKYYQENGNHSRQDSMEPWEEYSENGPKPTVLERRRMRDHQRVLAHSLVGTPNYIAPEVLERSGYTQLCDYWSVGVILYEMLVGQPPFLANSPLETQQKVINWEKTLHIPPQAELSREATDLIRRLCASADKRLGKSVDEVKSHDFFKGIDFADMRKQKAPYIPEIKHPTDTSNFDPVDPEKLRSNDSTMSSGDDVDQNDRTFHGFFEFTFRRFFDDKQPPDMTDDQAPVYV
partner: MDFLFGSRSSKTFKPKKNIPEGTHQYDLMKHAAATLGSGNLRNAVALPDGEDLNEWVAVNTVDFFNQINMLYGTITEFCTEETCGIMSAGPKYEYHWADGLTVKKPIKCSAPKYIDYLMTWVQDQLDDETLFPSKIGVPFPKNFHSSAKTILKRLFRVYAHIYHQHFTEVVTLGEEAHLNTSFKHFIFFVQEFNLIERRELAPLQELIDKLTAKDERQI
B3: Serine/threonine-protein kinase Warts (Drosophila melanogaster (Fruit fly)), Q9VA38 (parent)
chain: B2 chain
partner: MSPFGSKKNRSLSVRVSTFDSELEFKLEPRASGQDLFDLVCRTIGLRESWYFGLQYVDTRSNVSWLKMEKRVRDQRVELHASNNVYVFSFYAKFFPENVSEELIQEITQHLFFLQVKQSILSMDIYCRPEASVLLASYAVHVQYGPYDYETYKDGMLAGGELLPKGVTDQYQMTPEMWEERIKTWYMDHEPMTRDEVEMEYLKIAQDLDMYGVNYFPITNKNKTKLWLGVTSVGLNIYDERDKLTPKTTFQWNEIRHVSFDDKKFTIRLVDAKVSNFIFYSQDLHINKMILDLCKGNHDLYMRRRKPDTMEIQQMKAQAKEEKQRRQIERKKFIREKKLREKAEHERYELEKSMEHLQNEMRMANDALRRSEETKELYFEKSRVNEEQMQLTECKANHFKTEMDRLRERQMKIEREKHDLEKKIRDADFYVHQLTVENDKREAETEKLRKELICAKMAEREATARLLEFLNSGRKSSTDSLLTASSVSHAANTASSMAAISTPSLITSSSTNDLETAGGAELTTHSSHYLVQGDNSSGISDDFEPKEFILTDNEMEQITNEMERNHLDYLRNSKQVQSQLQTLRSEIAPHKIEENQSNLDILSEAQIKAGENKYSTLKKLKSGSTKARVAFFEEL
B4: Serine/threonine-protein kinase LATS1 (Homo sapiens), O95835 (parent)
chain: B1 partner

Variants of: B1
Conditions: with lats1_human LATS1, O95835

Variant | effect of a mutation on the interaction
L141P | disrupting interaction strength
L46R | disrupting interaction strength
L64P | disrupting interaction strength
F62S | disrupting interaction strength

Variants of: B2
Conditions: with mob1_drome mats

Variant | effect of a mutation on the interaction
R708A | disrupting interaction strength

Variants of: B3
Conditions: with merh_drome Mer

Variant | effect of a mutation on the interaction
A20P;I24T;L28P | disrupting interaction strength

Variants of: B4
Conditions: with merl_human NF2, P35240

Variant | effect of a mutation on the interaction
A77P;I81T;L85P | disrupting interaction strength

Variants of: B4
Conditions: with NF2, P35240-1

Variant | effect of a mutation on the interaction
A77P;I81T;L85P | disrupting interaction strength
